Test results published in paper PMC9888200.

Columns and labels:
recombinant FcγRI = recombinant FcγRI (UniProt P12314); test: ELISA; details: highest mAb concentration, about 200 nM (est. from x axis); parent: est. 0.73; read off a plot
[1] = molecular target: Biotinylated MPER peptide (HIV-1); test: BLI; biotinylated MPER peptide (30 nM) loaded on streptavidin biosensors to 0.6 nm, Octet RED96; Fabs at 50 and 100 nM; 0.5% BSA in PBS with 0.05% Tween 20; association 5 min, dissociation 10 min; values of the two concentrations averaged

Sequence of UniProt P12314 (P12314 16-292): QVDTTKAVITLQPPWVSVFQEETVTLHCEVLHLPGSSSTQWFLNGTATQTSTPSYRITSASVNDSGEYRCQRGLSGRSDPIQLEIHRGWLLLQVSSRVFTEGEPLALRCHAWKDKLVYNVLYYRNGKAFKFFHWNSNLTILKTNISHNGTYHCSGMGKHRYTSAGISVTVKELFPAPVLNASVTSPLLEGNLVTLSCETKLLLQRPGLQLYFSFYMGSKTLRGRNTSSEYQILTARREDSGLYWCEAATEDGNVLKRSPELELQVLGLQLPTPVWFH

| response (Absorbance at 450nm) (recombinant FcγRI) | Substance | Kd [1] | koff [1] |
| --- | --- | --- | --- |
| 0.05 | 10E8v4 WT antibody (IgG) L234A; L235A; P329G | – | – |
| – | 10E8 Fab | 3.8 nM | 0.0016 s⁻¹ |
